Read-outs that look alike come from different tables or passages of the source.
What was measured:
Experiment in all cases: cell-based or functional assay
hNav1.7 (human), Q15858 [1] = target: hNav1.7 (human), Q15858
hNav1.6 (human), Q9UQD0 [2] = target: hNav1.6 (human), Q9UQD0
hNav1.7 (human), Q15858 [3] = target: hNav1.7 (human), Q15858; remark: listed apart in the source
Nav1.9 = target: Nav1.9
hNav1.3 (human), Q9NY46 = target: hNav1.3 (human), Q9NY46
Kv2.1 = target: Kv2.1
hNav1.6 (human), Q9UQD0 [4] = target: hNav1.6 (human), Q9UQD0; remark: listed apart in the source
Cav1.3 = target: Cav1.3
Cav1.1 = target: Cav1.1
hNav1.2 (human), Q99250 = target: hNav1.2 (human), Q99250
Cav2.2 = target: Cav2.2
hNav1.4 (human), P35499 = target: hNav1.4 (human), P35499
hNav1.1 (human), P35498 = target: hNav1.1 (human), P35498
Nav1.8 = target: Nav1.8
hNav1.5 (human), Q14524 = target: hNav1.5 (human), Q14524
hERG, Q12809 = target: T1, hERG, Q12809
T1 chain: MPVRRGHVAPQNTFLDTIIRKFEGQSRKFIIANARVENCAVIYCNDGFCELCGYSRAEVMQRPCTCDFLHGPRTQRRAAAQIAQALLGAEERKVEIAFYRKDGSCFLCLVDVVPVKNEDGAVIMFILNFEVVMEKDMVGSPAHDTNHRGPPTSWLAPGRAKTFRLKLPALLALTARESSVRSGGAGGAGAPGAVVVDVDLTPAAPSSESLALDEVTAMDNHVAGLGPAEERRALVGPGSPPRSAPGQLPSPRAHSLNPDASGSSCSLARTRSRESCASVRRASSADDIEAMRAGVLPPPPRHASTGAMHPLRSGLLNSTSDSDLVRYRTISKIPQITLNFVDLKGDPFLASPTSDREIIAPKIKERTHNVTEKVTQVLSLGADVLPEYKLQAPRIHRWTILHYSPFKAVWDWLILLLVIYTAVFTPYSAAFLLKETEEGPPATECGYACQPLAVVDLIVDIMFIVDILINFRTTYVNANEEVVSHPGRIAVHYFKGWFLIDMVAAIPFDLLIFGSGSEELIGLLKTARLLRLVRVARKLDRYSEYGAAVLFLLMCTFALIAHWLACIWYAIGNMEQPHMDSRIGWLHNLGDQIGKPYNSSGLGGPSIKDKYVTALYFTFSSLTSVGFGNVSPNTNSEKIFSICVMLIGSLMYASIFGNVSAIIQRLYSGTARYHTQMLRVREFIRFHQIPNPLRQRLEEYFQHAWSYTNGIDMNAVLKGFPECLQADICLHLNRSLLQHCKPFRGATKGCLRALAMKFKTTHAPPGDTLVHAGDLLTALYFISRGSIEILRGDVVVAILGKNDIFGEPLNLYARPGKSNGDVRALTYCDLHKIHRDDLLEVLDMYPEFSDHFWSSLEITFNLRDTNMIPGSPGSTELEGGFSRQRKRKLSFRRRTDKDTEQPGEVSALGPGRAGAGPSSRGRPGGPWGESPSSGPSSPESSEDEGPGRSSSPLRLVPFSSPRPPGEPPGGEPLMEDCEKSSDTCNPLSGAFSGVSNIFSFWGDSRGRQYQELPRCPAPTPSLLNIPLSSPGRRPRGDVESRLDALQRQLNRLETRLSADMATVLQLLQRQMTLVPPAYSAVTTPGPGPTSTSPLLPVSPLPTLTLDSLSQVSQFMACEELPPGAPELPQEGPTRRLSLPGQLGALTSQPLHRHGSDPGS

YCQKFLWTCDSERPCCEGLVCRLWCKIN (modifications not checked) [Hsp1a-FL] showed an IC50, automated whole-cell patch clamp (hNav1.7 (human), Q15858 [1]) of 62 nM.

For GNDCLGFWSACNPKNDKCCANLVCSSKHKWCKGKL (modifications not checked) [Hs1a], the IC50, automated patch clamp (hNav1.6 (human), Q9UQD0 [2]) was 19.2 nM, the IC50, automated patch clamp (hNav1.7 (human), Q15858 [3]) was 26.9 nM and the IC50 (Nav1.9) was greater than 3000 nM. It also gave an IC50, automated patch clamp (hNav1.3 (human), Q9NY46) of 107 nM, an IC50 (Kv2.1) greater than 3000 nM and an IC50, automated patch clamp (hNav1.6 (human), Q9UQD0 [4]) of 168 nM. For the same binder, the IC50 (Cav1.3) was greater than 3000 nM, the IC50 (Cav1.1) was greater than 3000 nM and the IC50, automated patch clamp (hNav1.2 (human), Q99250) was 82.2 nM. It also gave an IC50 (Cav2.2) greater than 3000 nM, an IC50, automated patch clamp (hNav1.4 (human), P35499) greater than 3000 nM and an IC50, automated patch clamp (hNav1.1 (human), P35498) of 19.4 nM. It also gave an IC50 (Nav1.8) greater than 3000 nM, an IC50, automated patch clamp (hNav1.5 (human), Q14524) greater than 3000 nM and an IC50, automated patch clamp (hNav1.7 (human), Q15858 [1]) of 45.7 nM. The IC50 (hERG, Q12809) was greater than 3000 nM.

For GNDCLGFWSACNPKNDKCCANLVCSSKHKWCKGKL (modifications not checked) [Hs1a-FL], the IC50, patch clamp on HEK293 cells (hNav1.3 (human), Q9NY46) was 107 nM, the IC50, patch clamp on HEK293 cells (hNav1.6 (human), Q9UQD0 [4]) was 19.2 nM and the IC50, patch clamp on HEK293 cells (hNav1.2 (human), Q99250) was 81.2 nM. For the same binder, the IC50, patch clamp on HEK293 cells (hNav1.4 (human), P35499) was greater than 3000 nM, the IC50, patch clamp on HEK293 cells (hNav1.1 (human), P35498) was 19.4 nM and the IC50, patch clamp on HEK293 cells (hNav1.5 (human), Q14524) was greater than 3000 nM. It also gave an IC50, patch clamp on HEK293 cells (hNav1.7 (human), Q15858 [1]) of 26.9 nM.

Source: patent US20220089663A1, “PROTEINS AND FLUOROPHORE-CONTAINING COMPOUNDS SELECTIVE FOR NaV1.7” (MEMORIAL SLOAN KETTERING CANCER CENTER, priority 2019, published 2022)
